± gives the standard deviation of the averaged measurements.
Test system: ATP
Test: switch fluorescence ratio, 500 uM ATP over buffer (Cy3 cluster intensity, sum of 5 cycles each) (fold (ratio)); higher = stronger signal-on switching upon ATP binding; sequences stand for … in TCGTCGGCAGCGTCAGATGTGTATAAGAGACAGTTTTTTTTTTTTTTTTTTTTTTTTT…TC
Settings: aptamer strand: ATP DNA aptamer (quencher-CACCTGGGGGAGTATTGCGGAGGAAGG + anchor), 100 nM annealed; ATP concentration: 500 uM
Method in brief: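 After annealing to 100 nM quencher-labelled ATP aptamer, Cy3-labelled switching-strand clusters on a modified Illumina MiSeq flow-cell were imaged in selection buffer. A second image followed after 15 min with 500 uM ATP at 22 °C, and five such buffer/ATP cycles were done, each separated by NaOH stripping and re-annealing. The fluorescence ratio, averaged per switch-domain sequence, is summed target-cycle over summed buffer-cycle Cy3 intensity per cluster, with clusters outside 100-1000 RFU excluded.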
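Note: ATP exposure 15 min at 22 °C before imaging.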

Sequence	switch fluorescence ratio
GGGGTGTAGT	0.9854 ± 0.0053
GGGGTGTCTG	0.9792 ± 0.0074
GGGGTGTGGC	0.977 ± 0.046
GGGGTGTTAT	0.955 ± 0.037
GGGGTGTTTT	0.999 ± 0.048
GGGGTTAACG	0.996 ± 0.031
GGGGTTAAGA	1.01 ± 0.08
GGGGTTAATG	0.998 ± 0.028
GGGGTTAATT	1 ± 0.026
GGGGTTAGTG	0.971 ± 0.034
GGGGTTCATG	0.9675 ± 0.006
GGGGTTCGAA	0.963 ± 0.016
GGGGTTGATG	0.965 ± 0.022
GGGGTTGGTG	0.989 ± 0.02
GGGGTTGTTT	1.03 ± 0.08
GGGGTTTAAG	0.969 ± 0.025
GGGGTTTACG	1 ± 0.039
GGGGTTTAGG	0.989 ± 0.026
GGGGTTTCAG	1.02 ± 0.012
GGGGTTTGCA	0.978 ± 0.046
GGGGTTTTGC	0.985 ± 0.017
GGGGTTTTTC	0.9786 ± 0.0085

Sequence	switch fluorescence ratio
GGGTAAAACT	1.0166 ± 0.00025
GGGTAAAGTG	0.9928 ± 0.0032
GGGTAAATAT	0.98 ± 0.014
GGGTAAATGG	1.02 ± 0.034
GGGTAAATGT	0.9908 ± 0.0024
GGGTAAGGAC	1.03 ± 0.014
GGGTAATAAG	0.993 ± 0.035
GGGTAATCTT	0.991 ± 0.028
GGGTACAGGG	1 ± 0.02
GGGTACATTT	0.987 ± 0.016
GGGTACGAG	1.018 ± 0.01
GGGTACGCAG	1.01 ± 0.029
GGGTACGCGA	1.222 ± 0.0097
GGGTACGGGG	1 ± 0.03
GGGTACTGGT	1 ± 0.026
GGGTACTTGT	0.999 ± 0.022
GGGTAGGGAT	1 ± 0.032
GGGTAGGGCG	1.03 ± 0.14
GGGTAGTCCG	0.9937 ± 0.007
GGGTAGTTTT	0.989 ± 0.018
GGGTATAACA	1.004 ± 0.0083
GGGTATAAGG	0.989 ± 0.026

Sequence	switch fluorescence ratio
GGGTATAGCC	0.9807 ± 0.0066
GGGTATCA	0.954 ± 0.021
GGGTATCACT	0.992 ± 0.016
GGGTATCGTT	0.965 ± 0.027
GGGTATGCCC	0.9949 ± 0.0027
GGGTATGCGT	0.975 ± 0.026
GGGTATGTTT	0.981 ± 0.03
GGGTATTACG	0.975 ± 0.023
GGGTATTTAG	0.983 ± 0.033
GGGTCAAGGG	0.979 ± 0.019
GGGTCAGGAT	0.968 ± 0.019
GGGTCAGGGA	1.01 ± 0.065
GGGTCAGTGT	0.952 ± 0.018
GGGTCATGAT	1.01 ± 0.021
GGGTCCTGGC	0.985 ± 0.037
GGGTCCTTTT	1 ± 0.021
GGGTCGAGGG	0.986 ± 0.027
GGGTCGCGCC	1.01 ± 0.046
GGGTCGCGGG	0.9946 ± 0.0024
GGGTCGGCAC	0.968 ± 0.035
GGGTCGGGTG	1.03 ± 0.042
GGGTCGTAGC	1.01 ± 0.037

Sequence	switch fluorescence ratio
GGGTCTACA	0.9714 ± 0.0025
GGGTCTCATT	0.981 ± 0.022
GGGTCTGTGG	0.9812 ± 0.0062
GGGTCTTGAC	0.9858 ± 0.0045
GGGTCTTGAT	0.9675 ± 0.0047
GGGTCTTTGA	1.03 ± 0.041
GGGTGAAGGA	0.989 ± 0.042
GGGTGACCAC	0.986 ± 0.0044
GGGTGACTTA	0.978 ± 0.04
GGGTGAGATT	1.02 ± 0.015
GGGTGAGTCG	1.02 ± 0.037
GGGTGAGTGG	1.01 ± 0.021
GGGTGATAGA	1.01 ± 0.039
GGGTGCACAC	1.09 ± 0.095
GGGTGCAGGG	0.9932 ± 0.0059
GGGTGCATCG	1.004 ± 0.0046
GGGTGCATTG	1.03 ± 0.021
GGGTGCGCGA	1.04 ± 0.041
GGGTGCGGCA	0.998 ± 0.019
